We go through three molecules from patent US20110124071A1, “METHODS AND COMPOSITIONS FOR PRODUCING HYDROCARBONS” (priority 2009, published 2011).

Series [1] has as its system T1, Prochlorococcus marinus CCMP1986 PMM0532 (NP-892650; putative decarbonylase).
T1 sequence: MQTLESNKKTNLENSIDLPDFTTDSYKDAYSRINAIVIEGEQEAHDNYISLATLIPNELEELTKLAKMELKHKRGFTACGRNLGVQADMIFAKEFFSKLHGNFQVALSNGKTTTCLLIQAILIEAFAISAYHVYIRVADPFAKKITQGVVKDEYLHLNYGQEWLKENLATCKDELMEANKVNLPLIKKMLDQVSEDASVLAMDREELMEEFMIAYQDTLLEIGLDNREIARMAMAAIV

The test system of the next series is E. coli MG1655. Description: Heterologous expression of putative aldehyde-generating enzyme alone in E. coli, GC-MS of extracts. Format: cell-based. Conditions: enzyme expressed alone in E. coli MG1655, M9 minimal media, 37° C. On the procedure:
The genomic DNA encoding Synechococcus elongatus PCC7942 orf1594 (YP—400611; putative aldehyde-generating enzyme) (SEQ ID NO: 65) was amplified and cloned into the NcoI and EcoRI sites of vector OP-80 (pCL1920 derivative) under the control of the Ptrc promoter. The resulting construct (“OP80-PCC7942—1594”) was transformed into E. coli MG1655 and the cells were grown at 37° C. in M9 minimal media with 1% (w/v) glucose as carbon source and supplemented with 100 μg/ml spectinomycin. When the culture reached OD600 of 0.8-1.0, it was induced with 1 mM IPTG and cells were grown for an additional 18-20 h at 37° C. Cells from 0.5 ml of culture were extracted with 0.5 ml of ethyl acetate. After sonication for 60 min, the sample was centrifuged at 15,000 rpm for 5 min. The solvent layer was analyzed by GC-MS as described in Example 1.
The genomic DNA encoding Cyanothece sp. ATCC51142 cce—1430 (YP—001802846; putative aldehyde-generating enzyme) (SEQ ID NO: 70) was amplified and cloned into the NcoI and EcoRI sites of vector OP-80 (pCL1920 derivative) under the control of the Ptrc promoter. The resulting construct was transformed into E. coli MG1655 and the cells were grown at 37° C. in M9 minimal media with 1% (w/v) glucose as carbon source and supplemented with 100 μg/ml spectinomycin. The cells were cultured and extracted as in Example 3 and analyzed by GC-MS as described in Example 26.
The genomic DNA encoding P. mariunus CCMP1986 PMM0533 (NP_892651; putative aldehyde-generating enzyme) (SEQ ID NO: 72) and Prochlorococcus mariunus CCMP1986 PMM0532 (NP_892650; putative decarbonylase) (SEQ ID NO: 19) were amplified and cloned into the NcoI and EcoRI sites of vector OP-80 and the NdeI and XhoI sites of vector OP-183, respectively. The resulting constructs were separately transformed and cotransformed into E. coli MG1655 and the cells were grown at 37° C. in M9 minimal media supplemented with 100 μg/ml spectinomycin and 100 μg/ml carbenicillin. The cells were cultured and extracted as in Example 3 and analyzed by GC-MS as described in Example 26.

In series [2] the test system is E. coli MG1655 ΔfadE lacZ::Ptrc ′tesA-fadD. Description: Heterologous expression in a fatty acyl-CoA-producing E. coli strain, GC-MS. Format: cell-based. Conditions: reductase coexpressed with a fatty aldehyde decarbonylase. From the text:
The genomic DNA encoding Acaryochloris marina MBIC11017 AM1—4041 (YP—001518340; putative fatty aldehyde decarbonylase) (SEQ ID NO: 9) was synthesized and cloned into the NdeI and XhoI sites of vector OP-183 (pACYC derivative) under the control of the Ptrc promoter. The resulting construct was cotransformed with OP80-PCC7942—1594 into E. coli MG1655 ΔfadE lacZ::Ptrc ′tesA-fadD. This strain expresses a cytoplasmic version of the E. coli thioesterase, ′TesA, and the E. coli acyl-CoA synthetase, FadD, under the control of the Ptrc promoter, and therefore produces fatty acyl-CoAs. The cells were grown at 37° C. in M9 minimal media supplemented with 100 μg/ml spectinomycin and 100 μg/ml carbenicillin. The cells were cultured and extracted as in Example 3 and analyzed by GC-MS as described in Example 1.
The genomic DNA encoding Synechocystis sp. PCC6803 sll0208 (NP_442147; putative fatty aldehyde decarbonylase) (SEQ ID NO: 3) was synthesized and cloned into the NdeI and XhoI sites of vector OP-183 (pACYC derivative) under the control of the Ptrc promoter. The genomic DNA encoding Synechocystis sp. PCC6803 sll0209 (NP_442146; acyl-ACP reductase) (SEQ ID NO: 68) was synthesized and cloned into the NcoI and EcoRI sites of vector OP-183 (pACYC derivative) under the control of the Ptrc promoter. The resulting constructs were cotransformed with into E. coli MG1655 ΔfadE lacZ::Ptrc ′tesA-fadD. This strain expresses a cytoplasmic version of the E. coli thioesterase, ′TesA, and the E. coli acyl-CoA synthetase, FadD, under the control of the Ptrc promoter, and therefore produces fatty acyl-CoAs. The cells were grown at 37° C. in M9 minimal media supplemented with 100 μg/ml spectinomycin and 100 μg/ml carbenicillin. The cells were cultured and extracted as in Example 3 and analyzed by GC-MS as described in Example 26.

Substrate in series [3]: CCCCCCCCCCCCCCCCCC(=O)SCCNC(=O)CCNC(=O)[C@H](O)C(C)(C)COP(=O)(O)OP(=O)(O)OC[C@H]1O[C@@H](n2cnc3c(N)ncnc32)[C@H](O)[C@@H]1OP(=O)(O)O
Briefly: acyl-ACP or acyl-CoA reductase enzyme assay, GC/MS. To be noted: other: in the presence of 2 mM NADPH; pH 7.5; 37.0 °C. Format: biochemical. On the procedure: The genomic DNA encoding S. elongatus PCC7492 orf1594 (SEQ ID NO: 66) was cloned into the NcoI and XhoI sites of vector pET-28b under the control of the T7 promoter. The resulting PCC7942_orf1594 protein contained a C-terminal His-tag. An E. coli BL21 strain (DE3) (Invitrogen) was transformed with the plasmid and PCC7942_orf1594 protein was expressed and purified as described in Example 22. The protein solution was stored in the following buffer: 50 mM sodium phosphate, pH 7.5, 100 mM NaCl, 1 mM THP, 10% glycerol. Protein concentration was determined using the Bradford assay (Bio-Rad). 2 mg/ml of PCC7942 orf1594 protein was obtained.
To test PCC7942_orf1594 protein for acyl-ACP or acyl-CoA reductase activity, the following enzyme assays were set-up. 100 μl reactions were set-up in 50 mM Tris-HCl buffer at pH 7.5 with the following components at their respective final concentrations: 10 μM of purified PCC7942_orf1594 protein, 0.01-1 mM acyl-CoA or acyl-ACP, 2 mM MgCl2, 0.2-2 mM NADPH. The reactions were incubated for 1 h at 37° C. and where stopped by adding 100 μl ethyl acetate (containing 5 mg/l 1-octadecene as internal standard). […] 80 μl of the top layer were transferred into GC glass vials and analyzed by GC/MS as described in Example 26. The amount of aldehyde formed was calculated based on the internal standard.

Take “Prochlorococcus marinus CCMP1986 PMM0533 (NP-892651; putative aldehyde-generating enzyme)”: the “fatty alcohol, alkane and alkene production (GC/MS) in E. coli MG1655, PMM0533 alone against PMM0533 coexpressed with PMM0532” value in series [1] is “E. coli cells transformed with only the P. mariunus CCMP1986 PMM0533-bearing vector did not produce any fatty aldehydes or fatty alcohols. However, E. coli cells cotransformed with PMM0533 and PMM0532-bearing vectors produced hexadecanol, pentadecane and heptadecene”.

B1: PMM0533: Prochlorococcus marinus CCMP1986 putative aldehyde-generating enzyme (SEQ ID NO: 72) (protein, listed as Prochlorococcus marinus)
chain: MFGLIGHSTSFEDAKRKASLLGFDHIADGDLDVWCTAPPQLVENVEVKSAIGISIEGSYIDSCFVPEMLSRFKTARRKVLNAMELAQKKGINITALGGFTSIIFENFNLLQHKQIRNTSLEWERFTTGNTHTAWVICRQLEMNAPKIGIDLKSATVAVVGATGDIGSAVCRWLINKTGIGELLLVARQKEPLDSLQKELDGGTIKNLDEALPEADIVVWVASMPKTMEIDANNLKQPCLMIDGGYPKNLDEKFQGNNIHVVKGGIVRFFNDIGWNMMELAEMQNPQREMFACFAEAMILEFEKCHTNFSWGRNNISLEKMEFIGAASVKHGFSAIGLDKHPKVLAV
In the case of B1, in the series on E. coli MG1655, the “production of fatty aldehydes and fatty alcohols” value is given as “did not produce any fatty aldehydes or fatty alcohols”.

B2: PCC7942_orf1594 protein (Synechococcus elongatus PCC 7942 = FACHB-805) (protein)
chain: MFGLIGHLTSLEQARDVSRRMGYDEYADQGLEFWSSAPPQIVDEITVTSATGKVIHGRYIESCFLPEMLAARRFKTATRKVLNAMSHAQKHGIDISALGGFTSIIFENFDLASLRQVRDTTLEFERFTTGNTHTAYVICRQVEAAAKTLGIDITQATVAVVGATGDIGSAVCRWLDLKLGVGDLILTARNQERLDNLQAELGRGKILPLEAALPEADFIVWVASMPQGVVIDPATLKQPCVLIDGGYPKNLGSKVQGEGIYVLNGGVVEHCFDIDWQIMSAAEMARPERQMFACFAEAMLLEFEGWHTNFSWGRNQITIEKMEAIGEASVRHGFQPLALAI
notes: His-tag (C); made in house; host or cells: E. coli BL21 (DE3)
Turning to B2, the “Km for the reduction of octadecenoyl-ACP in the presence of 2 mM NADPH (in vitro reductase assay, GC/MS)” value in the series with octadecenoyl-ACP was determined as 7.8 ± 2 µM. Moreover, the “production of fatty aldehydes and fatty alcohols” value in the series with E. coli MG1655 is “generates aldehydes in vivo”. In addition, the “use of acyl-CoA as substrate to produce fatty aldehydes” value in series [2] was “able to use acyl-CoA as a substrate”. In addition, the Km (in general, the concentration of substrate that gives half-maximal velocity) in series [3] came to 45 ± 20 µM.
